Assay results as given in patent US20250170175A1 (OSLO UNIVERSITETSSYKEHUS HF, published 2025).
One block for each binder: values may come before it.

Assays:
[1] = target: HLA-A2 presenting TdT peptide-1 (…) on target cells (human); test: cell-based or functional assay
[2] = target: T1, human terminal deoxynucleotidyl transferase (TdT) peptide on HLA-A*02:01 (human); test: multimer staining
T1 peptide: ALYDKTKRI

[3] = target: HLA-A2 presenting TdT peptide-3 (…) on target cells (human); test: cell-based or functional assay
[4] = target: T1, human terminal deoxynucleotidyl …; test: cytokine release
[5] = target: T2, human terminal deoxynucleotidyl transferase (TdT) peptide on HLA-A*02:01 (human); test: multimer staining
T2 peptide: ALYDKTKRIFL

B1: T1 TCR (TCR, V domains shown)
V domain 1: EDQVTQSPEALRLQEGESSSLNCSYTVSGLRGLFWYRQDPGKGPEFLFTLYSAGEEKEKERLKATLTKKESFLHITAPKPEDSATYLCAVQASSNSGYALNFGKGTSLLVTP
V domain 2: SAVISQKPSRDICQRGTSLTIQCQVDSQVTMMFWYRQQPGQSLTLIATANQGSEATYESGFVIDKFPISRPNLTFSTLTVSNMSPEDSSIYLCSVEPGYADTQYFGPGTRLTVLE
- EC50 of activation of T1 cells following co-incubation with peptide-pulsed T2 lymphoblast cells [1]: 5.8 nM

B3: T3 TCR (TCR, V domains shown)
V domain 1: SQQGEEDPQALSIQEGENATMNCSYKTSINNLQWYRQNSGRGLVHLILIRSNEREKHSGRLRVTLDTSKKSSSLLITASRAADTASYFCATDAGAYSGGGADGLTFGKGTHLIIQP
V domain 2: EAQVTQNPRYLITVTGKKLTVTCSQNMNHEYMSWYRQDPGLGLRQIYYSMNVEVTDKGDVPEGYKVSRKEKRNFPLILESPSPNQTSLYFCASSLSSSYNEQFFGPGTRLTVLE
- EC50 of activation of T3 cells following co-incubation with peptide-pulsed T2 lymphoblast cells [3]: 1.2 nM

Other lines, results leading:

- binding result [2]: recognises
B2: T1 TCR (TCR, V domains shown)
Valpha: EDQVTQSPEALRLQEGESSSLNCSYTVSGLRGLFWYRQDPGKGPEFLFTLYSAGEEKEKERLKATLTKKESFLHITAPKPEDSATYLCAVQASSNSGYALNFGKGTSLLVTP
Vbeta: SAVISQKPSRDICQRGTSLTIQCQVDSQVTMMFWYRQQPGQSLTLIATANQGSEATYESGFVIDKFPISRPNLTFSTLTVSNMSPEDSSIYLCSVEPGYADTQYFGPGTRLTVL

- binding result [4]: no recognition
- binding result [5]: recognises
B4: T3 TCR (TCR, V domains shown)
Valpha: SQQGEEDPQALSIQEGENATMNCSYKTSINNLQWYRQNSGRGLVHLILIRSNEREKHSGRLRVTLDTSKKSSSLLITASRAADTASYFCATDAGAYSGGGADGLTFGKGTHLIIQP
Vbeta: EAQVTQNPRYLITVTGKKLTVTCSQNMNHEYMSWYRQDPGLGLRQIYYSMNVEVTDKGDVPEGYKVSRKEKRNFPLILESPSPNQTSLYFCASSLSSSYNEQFFGPGTRLTVL
